System: BCL-1 cells
Assay: IgM secretion by retrovirally transduced BCL-1 cells (ELISA)
Assay type: cell-based
Procedure: Mouse splenocytes or purified B cells (purified mature B cells were isolated from spleen and lymph nodes by magnetic CD43 depletion or B220 magnetic bead selection, Miltenyi Biotech, Auburn Calif.) were plated at 1×10^6 cells/ml in complete media containing RPMI 1640 supplemented with 10% fetal calf serum (FBS)(Hyclone Laboratories), glutamine (2 mM), penicillin (50 units/ml), streptomycin (50 μg/ml), Hepes (100 mM), nonessential amino acids (1×) sodium pyruvate (1 mM) and β-ME (50 μM) and stimulated with anti-CD40(1 μg/ml)(Pharmigen) or LPS (20 μg/ml)(Sigma). Cytokines (R&D Systems, Minneapolis, Minn.) were used at IL-4 (20 ng/ml), IL-2 (20 ng/ml), Il-5 (20 ng/ml), IL-6 (20 ng/ml ), IL-10 (20 ng/ml ) and IL-13 (20 ng/ml). Stimulated B cells were split to a cell concentration of 1×10^6 cells/ml with fresh media every 24 h. The BCL1 (CWS13.20-3B3 ATCC CRL 1699) cell line was cultured in RPMI media supplemented with 10% FBS, gentamicin (20 μg/ml), and β-ME (50 μM). To induce differentiation cells were plated at 2×10^5 cells/ml and treated with recombinant mouse IL-2 and IL-5 (20 ng/ml) (R&D systems).
Assays to measure immunoglobulin or cytokine levels in culture supernatants were performed as described (e.g., Hodge et al., 1996 Immunity. 4:397-405 or Science. 1996 274:1903-5).
The XBP-1 cDNAs for the unspliced (XBP-1u/s) and the spliced (XBP-1s) forms were PCR-amplified from the total RNA of untreated and tunicamycin treated NIH3T3 cells, respectively, with a primer set (5′-[…]-3′ (SEQ ID NO: 7) and 5′-[…]-3′) (SEQ ID NO: 8). XBP-1u form was generated by a PCR-based mutagenesis from XBP-unspliced/s cDNA so that the two G residues at position 532 and 535 were changed to A without changing amino acid sequences in the XBP-1u open reading frame. Numbers are based on the sequences from gene bank database (NM_013842 [gi:13775155]). These XBP-1 cDNAs were inserted into the GFP-RV retroviral vector by using blunt end ligation (Sambrook et al., 1989). EFFECTENE transfection (Quiagen) was used to introduce the DNA into the Phoenix cell line as described by manufacturer (e.g., Reimold et al., 2001 Nature. 412:300-7 or Int Immunol. 2001 13:241-8). Viral supernatants were harvested after 48 hours and frozen at −80° C. for later use. B cells were purified from mouse spleens using CD43 depletion or positive selection with B220+ magnetic beads as described by the manufacturer (MidiMacs, Miltenyi Biotech). B cell purity was generally near 95% as confirmed by flow cytometry. The B cells (10^6 cells /ml) were then activated in culture with LPS 10 μg/ml and F (ab′)2 anti-IgM (5 μg/ml Southern Biotechnology Associates Inc.) for 24 hours. […]

B1: XBP-1s: vector encoding only the spliced form of murine XBP-1, a protein of 371 aa (protein)
chain: MVVVAAAPSAATAAPKVLLLSGQPASGGRALPLMVPGPRAAGSEASGTPQARKRQRLTHLSPEEKALRRKLKNRVAAQTARDRKKARMSELEQQVVDLEEENHKLQLENQLLREKTHGLVVENQELRTRLGMDTLDPDEVPEVEAKGSGVRLVAGSAESAAGAGPVVTSPEHLPMDSDTVASSDSESDILLGILDKLDPVMFFKCPSPESASLEELPEVYPEGPSSLPASLSLSVGTSSAKLEAINELIRFDHVYTKPLVLEIPSETESQTNVVVKIEEAPLSSSEEDHPEFIVSVKKEPLEDDFIPELGISNLLSSSHCLRPPSCLLDAHSDCGYEGSPSPFSDMSSPLGTDHSWEDTFANELFPQLISV
For B1, the “IgM secretion compared to vector alone controls” value (GFP positive BCL-1 cells treated with IL-2 and IL-5 for 3 days) was “approximately fourfold” and the Ig secretion (GFP positive BCL-1 cells untreated with cytokine) was “neither XBP-1u/s nor XBP-1s forms were able to induce Ig secretion”.

From patent US20040170622A1, “Methods and compositions for modulating XBP-1 activity” (President and Fellows of Harvard College, priority 2002, published 2004)
